US20240067729A1 (PALLEON PHARMACEUTICALS, published 2024)
Numbering of substitutions follows the chain as printed. In names and notes the source's numbering stands.

B1: PAL788(3E3) (hybridoma CKH-3E3) (antibody, V domains shown)
VH: QVQLQQPGAELVKPGASVKLSCKASGYTFTSNWMNWVKQRPGRGLEWIGRIHPSDSETHYHQKFKSKATLTVDKSSSTAYIQLSSLTSEDSAVYYCAHSSGDYGRDYWGQGTTLTVSS
VL: NIVLTQSPASLAVSLGQRATISCRASESVDSYGNSFMHWYQQKPGQPPKLLIYLASNLQSGVPARFSGSGSRTDFTLTIDPVEADDAATYYCQQNNEDPWTFGGGTKLEIK
notes: Mouse IgG purified from hybridoma supernatant
B2: PAL752 (hybridoma 4G6.H4) (antibody, V domains shown)
VH: EVQLQESGAELARPGASVKLSCKASGHAFTSDSINWVKQRIGQGLEWIGEIYPRSGNPYYNEKFKGKATLTADKSSSTAYMELRSLTSEDSAVYFCATDYYGRYFDVWGTGTTVTVSS
VL: DIQMTQSSFSFSVSLGDRVTIICKASEDIYNRLAWYQQKPGNTPRLLISGATSLETGVPSRFSGSGSGKDYTLSITSLQTEDVATYYCQQYWSTPWTFGGGTKLEIK
notes: as for B1
B3: PAL785 (hybridoma 16G1.A5) (antibody, V domains shown)
VH: EVQLQESGPELVKPGTSVKMSCKASGYTFTSYVMHWVKQRPGQGLEWIGYINPYNDGSKYNEKFKGKATLTSDTSSSTAYMELSSLTSEDSAVYYCAKQTLDFWGQGTSVTVST
VL: DIVLTQSPASLAVSLGQRATISCRASESVEFYGTTLMQWYQQKPGQPPKLLIYAASNVESGVPARFSGSGSGTDFSLNIHPVEEGDIGMYFCQQSRKVPYTFGGGTKLEIK
notes: as for B1
B4: PAL769 (hybridoma 2C1.C8) (antibody, V domains shown)
VH: EVQLQESGAELVKPGASVTLSCTASGFNIKDTYMHWVKQRPEQGLEWIGRIDPANDNTKYDPKFQDKATITADTSSDTAYLRLSSLTSEDTAVYYCAREGYGGSYGEGYWGQGTTLTVSS
VL: SIVMTQTPKFLLVSAGDRVTITCKASQSVSNDVIWYQQKPGQSPKLLIYYASIRFTGVPDRFAGSGYGTDFTFTINTVQAEDLAVYFCQQDYNSPWTFGGGTKLEIK
notes: as for B1
B5: PAL767 (hybridoma 1G7.A8) (antibody, V domains shown)
VH: EVQLQESGPSLVKPSQTLSLTCSVTGDSITSGYWNWIRKFPGNKLEYMGYISYTGSTYYNPSLKRRISITRDTSKNQYYLQLNSVTTEDTATYYCASQGGWLQAMDYWGQGTSVTVSS
VL: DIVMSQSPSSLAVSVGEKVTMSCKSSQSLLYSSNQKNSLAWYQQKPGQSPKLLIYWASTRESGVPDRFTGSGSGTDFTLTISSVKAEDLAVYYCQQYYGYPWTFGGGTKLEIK
notes: as for B1
B6: PAL759 (hybridoma 13F1.B7) (antibody, V domains shown)
VH: EVQLQESGAELVRPGASVKLSCKASGYSFTDYYINWVKQRPGQGLEWIARIYPGSGNTYYNEKFKGKATLTAEKSSITAYMQLSSLTSEDSAVYFCARSYYYGSSYLFDYWGQGTTLTVSS
VL: DILLTQSPAILSVSPGERVSFSCRASQSIGTSIHWYQQRTNGSPRLLIKYASESISGIPSRFSGSGSGTDFTLSINSVESEDIGDYYCQQSNNWPFTFGSGTKLEIK
notes: as for B1
B7: PAL787(3D10) (hybridoma CKH-3D10) (antibody, V domains shown)
VH: QVTLKESGPGILQPSQTLSLTCSFSGFSLSTYGLGVGWIRQPSGKGLEWLANIWWNDDKFYDSVLKSRLTISKDTSNNQVFLKISSVDTSETATYYCAQTLHYYDGIAWFAYWGQGTLVTVSA
VL: DIVMTQSQNFMSTSVGDRVSVTCKASHYVGTFVAWYQQKPGQSPKALIFSTSYRHTGVPDRFTGSGSGTDFTLTISNVQSEDLADYFCQQYYNSPLTFGAGTKLELK
notes: as for B1
B8: PAL771 (hybridoma 2D10.E2.B9) (antibody, V domains shown)
VH: EVQLQESGAELVKPGASVKLSCTASGFNIKDTYMHWVKQRPEQGLEWIGRIDPANGNTKYDPKFPGKATITADTSSNTAYLQLSSLTSEDAAVYYCARPFNYRFYDVYYFDYWGQGTTLTVST
VL: QIVLTQSPAIMSASPGEKVTMTCSASSSVSYMYWYQQKPGSSPRLLIYDTSNLASGVPLRFSGSGSGTSYSLTLSRMEAEDAATYYCQQWSTYPLTFGAGTKLELK
notes: as for B1
B9: h769-IF3 (humanized 769-hIgG1 variant) (antibody, V domains shown)
VH: EVQLVQSGAEVKKPGATVKISCKVSGFNIKDTYMHWVQQAPGKGLEWMGLIDPANDNTIYAEKFQGRVTITADTSTDTAYMELSSLRSEDTAVYYCAREGYGGSYGEGYWGQGTLVTVSS
VL: EIVMTQSPPTLSLSPGERVTLSCRASQSVSNDLSWYQQKPGQAPRLLIYYASIRFTGIPARFSGSGSGTDFTLTISSLQPEDFAVYYCQQDYNSPWTFGQGTKVEIK
B10: h769-tm2 (humanized 769-hIgG1 variant) (antibody, V domains shown)
VH: B9 VH
VL: B9 VL with S67Y
B11: h769-tm3 (humanized 769-hIgG1 variant) (antibody, V domains shown)
VH: B9 VH
VL: B9 VL with Y87F
B12: h769-N93 (humanized 769-hIgG1 variant keeping N93 in CDR-L3) (antibody, V domains shown)
VH: B9 VH
VL: B9 VL
B13: h769-N93A (humanized 769-hIgG1 variant, N93A in CDR-L3) (antibody, V domains shown)
VH: B9 VH
VL: B9 VL with N93A
notes: Human IgG1
B14: PAL771.2 (hybridoma 2D10.E2.H4) (antibody, V domains shown)
VH: B8 VH
VL: B8 VL

The binders below were run against T1, human PD-L1 Fc fusion (hPD-L1-Fc) (human, UniProt Q9NZQ7 19-238, limits assumed) (assay: blocking ELISA: antibody titrated + biotin-hPD-1-Fc 1 ug/mL on coated hPD-L1-Fc).
T1 construct: not shown: Fc part
T1 sequence (Q9NZQ7 19-238 limits assumed): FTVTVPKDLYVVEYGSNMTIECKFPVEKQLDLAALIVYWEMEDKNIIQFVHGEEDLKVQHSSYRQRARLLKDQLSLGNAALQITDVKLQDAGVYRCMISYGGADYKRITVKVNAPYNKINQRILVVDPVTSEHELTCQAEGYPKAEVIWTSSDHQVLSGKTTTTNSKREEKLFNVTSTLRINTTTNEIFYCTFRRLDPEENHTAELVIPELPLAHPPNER
Text: The plate was developed with TMB and Stop buffer, the absorbance at 450 nm was read using SpectraMax plate reader. The A450 absorbance was normalized to the control that without antibody for the percentage values. The curve and IC₅₀ were generated using GraphPad Prism software.

Row | IC50 [nM] | Binder
1 | 0.89 | B1
2 | 2.53 | B2
3 | 0.68 | B3
4 | 0.51 | B4
5 | 0.81 | B5
6 | 4.64 | B6
7 | 4.07 | B7

These binders were tested against T2, human PD-L1, his tagged (hPD-L1-his) (human, UniProt Q9NZQ7 19-238, limits assumed) (assay: BLI (ForteBio Octet), mouse IgG on AMC sensor, hPD-L1-his analyte, 1:1 fit).
T2 construct: also called huPD-L1-His; recombinant human PD-L1; not shown: his tag
T2 sequence (Q9NZQ7 19-238 limits assumed): as above
Protocol: (§1) Screening of purified hybridoma antibodies. ForteBio octet binding of purified antibodies to recombinant hPD-L1-his and cPD-L1-his was measured. Mouse IgGs purified from hybridoma supernatant were captured on AMC (Anti-mouse IgG-Capture) Biosensor. hPD-L1-his or cPD-L1-his analytes were titrated from 100 nM in a 2× series dilution. The signal was subtracted with buffer reference and aligned to the baseline. KD, Kon and Koff values were generated using a 1:1 fitting model. […] The X-axes represent assay time in seconds, and the Y-axes represent binding signal on the biosensor. Each line represents the real time signal of antigen association and dissociation at the given antigen concentration in the assay (e.g., the top line represents the signal of the highest antigen concentration in the assay, the second top line represents the second highest concentration in the assay). The vertical dashed line represents the time point that the assay was moved from association step to the dissociation step. All the ForteBio/Octet assays were using standard/conventional settings and the graphs provided in the figures will be understood by one of skill in the art.

Row | Kd [nM] | Binder
8 | 0.592 | B8
9 | 0.188 | B1
10 | 0.789 | B2
11 | 1.02 | B3
12 | 0.758 | B4
13 | 0.803 | B5
14 | 1.14 | B6
15 | 0.277 | B7

What follows are binders tested against T3, cynomolgus PD-L1, his tagged (cPD-L1-his) (cynomolgus (Macaca fascicularis), UniProt G7PSE7 19-238) (assay: BLI (ForteBio Octet), cPD-L1-his).
T3 construct: also called cyPD-L1-His; Cyno PD-L1
T3 sequence (G7PSE7 entry or part of it limits assumed, form in doubt): as the sequence (Q9NZQ7 19-238 limits assumed) above, with A33T, A34S, S62N, R68Q, Q82R, F173L, T185A, T192I, H215L counted along it
Protocol: (§2) Characterization of chimeric anti-PD-L1 antibodies. ForteBio octet binding of purified chimeric antibodies and recombinant hPD-L1-his and cPD-L1-his was measured. Chimeric human antibodies were captured on AHC (Anti-human IgG-Capture) Biosensor, hPD-L1-his or cPD-L1-his analytes were titrated from 100 nM in a 2× series dilution. The buffer reference was subtracted from the signal and aligned to the baseline. KD, Kon and Koff values were generated using 1:1 fitting model as described above. […]

Row | Kd [nM] | koff [s⁻¹] | kon [M⁻¹ s⁻¹] | Binder
16 | 2.92 | 0.000602 | 208000 | B9
17 | 3.01 | 0.000593 | 204000 | B10
18 | 3.11 | 0.00065 | 211000 | B11

Each binder was assayed against T2, human PD-L1, his tagged (hPD-L1-his) (assay: BLI (ForteBio Octet), hPD-L1-his).
Protocol: as §2

Row | Kd [nM] | koff [s⁻¹] | kon [M⁻¹ s⁻¹] | Binder
19 | 2.64 | 0.000871 | 330000 | B9
20 | 2.48 | 0.000818 | 331000 | B10
21 | 2.95 | 0.000904 | 311000 | B11

Target: T2, human PD-L1, his tagged (hPD-L1-his)
Assay: BLI (ForteBio Octet), hPD-L1-his
Remark: another data set of the same source
Protocol: Characterization of chimeric anti-PD-L1 antibodies. ForteBio octet binding of purified chimeric antibodies and recombinant hPD-L1-his and cPD-L1-his was measured. Chimeric human antibodies were captured on AHC (Anti-human IgG-Capture) Biosensor, hPD-L1-his or cPD-L1-his analytes were titrated from 100 nM in a 2× series dilution. The buffer reference was subtracted from the signal and aligned to the baseline. KD, Kon and Koff values were generated using 1:1 fitting model as described above.
Selected h769 antibodies were tested in the blocking ELISA as described in Example 3 herein. […] Selected h769 humanized PD-L1 antibodies were characterized following removal of the deamidation motif in CDR-L3. FIG. 25 depicts the ForteBio octet binding of purified humanized antibodies and recombinant hPD-L1-his was measured.

Row | koff [s⁻¹] | kon [M⁻¹ s⁻¹] | Kd [nM] | Binder
22 | 0.00058 | 292000 |  | B12
23 | 0.000414 | 284000 | 1.46 | B13

Each binder was assayed against T3, cynomolgus PD-L1, his tagged … (assay: ELISA on cynomolgus PD-L1).

Row | ELISA cyno, Fold over Bkg [fold over background] | Binder
24 | 24.8 | B1
25 | 18.4 | B2
26 | 4.98 | B3
27 | 39.5 | B4
28 | 36.9 | B5
29 | 13.1 | B6
30 | 38.2 | B7

These binders were tested against T3, cynomolgus PD-L1, his tagged … (assay: BLI (ForteBio Octet), mouse IgG on AMC sensor, cPD-L1-his analyte, 1:1 fit).
Protocol: as §1

Row | Kd [nM] | Binder
31 | 1.15 | B8
32 | 2.27 | B14
33 | 0.392 | B1
34 | 4.03 | B2
35 | 0.642 | B3
36 | 1.3 | B4
37 | 0.0577 | B5
38 | 0.283 | B7
